According to US20220411521A1 (Ablynx, published 2022):

T1: human GITR (human, UniProt Q9Y5U5 26-241)
T1 sequence: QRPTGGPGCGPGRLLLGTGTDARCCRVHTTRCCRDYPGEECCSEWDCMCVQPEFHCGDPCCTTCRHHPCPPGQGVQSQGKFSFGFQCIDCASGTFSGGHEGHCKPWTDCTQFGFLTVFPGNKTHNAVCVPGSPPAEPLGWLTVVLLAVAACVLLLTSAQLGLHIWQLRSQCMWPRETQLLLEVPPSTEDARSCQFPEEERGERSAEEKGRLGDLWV

T2: human GITR-Fc (Enzo Life Sciences, ALX-522-061-C050) (human, UniProt Q9Y5U5 26-162)
T2 construct: Bought protein; not shown: Fc part of the bought fusion protein; not described
T2 sequence: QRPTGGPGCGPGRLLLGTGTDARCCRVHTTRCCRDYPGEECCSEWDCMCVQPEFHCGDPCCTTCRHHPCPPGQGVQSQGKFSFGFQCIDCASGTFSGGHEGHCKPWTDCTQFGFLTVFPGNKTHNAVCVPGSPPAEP


Assays:
[1] = target: T1, human GITR; test: cell-based or functional assay
[2] = target: T1, human GITR; test: cell-based or functional assay; remark: listed apart in the source
[3] = target: T2, human GITR-Fc (Enzo Life Sciences, …); test: ProteOn XPR36; human GITR-Fc amine-coupled on GLC chip, Nanobody injected at 6 concentrations
Protocol: Affinity was determined on the Proteon XPR36. Briefly, after human GITR-Fc (Enzo Life Sciences, ALX-522-061-C050) was immobilized on a GLC chip via amine coupling, a range of 6 concentrations of different monovalent Nanobodies (representing each family) were injected. The Ko values were determined by using the calculated association rate and dissociation rate constants (Table 1) (ProteOn Manager 3.1.0, Version 3.1.0.6 (2011)).

EC50, IFN-γ read-out, human T cell activation assay [1] [nM]	Maximal efficacy (%), human GITR ligand = 100%, IFN-γ read-out [1] [%]	EC50, HEK293_NF-κB luc reporter [2] [nM]	Efficacy (%), human GITR ligand = 100%, HEK293_NF-κB luc reporter [2] [%]	Kd [3] [nM]	koff [3] [s⁻¹]	kon [3] [M⁻¹ s⁻¹]	Binder
0.0515	108	0.0118	146				A023100129 (VHH) DVQLVESGGGVVQPGGSLRLSCAASGSIFSIDSMGWYRQAPGKQRELVAAITSSTNYADSVKGRFTISRDNSKNTVYLQMNSLRPEDTALYYCNLEGQAGWGTALINYWGQGTLVTVSSGGGGSGGGSEVQLVESGGGVVQPGGSLRLSCAASGSIFSIDSMGWYRQAPGKQRELVAAITSSTNYADSVKGRFTISRDNSKNTVYLQMNSLRPEDTALYYCNLEGQAGWGTALINYWGQGTLVTVSSGGGGSGGGSEVQLVESGGGVVQPGGSLRLSCAASGSIFSIDSMGWYRQAPGKQRELVAAITSSTNYADSVKGRFTISRDNSKNTVYLQMNSLRPEDTALYYCNLEGQAGWGTALINYWGQGTLVTVSSGGGGSGGGSEVQLVESGGGVVQPGGSLRLSCAASGSIFSIDSMGWYRQAPGKQRELVAAITSSTNYADSVKGRFTISRDNSKNTVYLQMNSLRPEDTALYYCNLEGQAGWGTALINYWGQGTLVTVSSGGGGSGGGSEVQLVESGGGVVQPGGSLRLSCAASGSIFSIDSMGWYRQAPGKQRELVAAITSSTNYADSVKGRFTISRDNSKNTVYLQMNSLRPEDTALYYCNLEGQAGWGTALINYWGQGTLVTVSSGGGGSGGGGSGGGGSGGGGSGGGGSGGGGSGGGGSEVQLVESGGGVVQPGGSLRLSCAASGFTFRSFGMSWVRQAPGKGPEWVSSISGSGSDTLYADSVKGRFTISRDNSKNTLYLQMNSLRPEDTALYYCTIGGSLSRSSQGTLVTVSSA
0.0642	92.6	0.02	136				A023100101 (VHH) DVQLVESGGGVVQPGGSLRLSCAASETIFSIDSMAWYRQAPGKQRELVAAITGGGSPNYADSVKGRFTISSDVSKRTVYLQMNSLRPEDTALYYCNAEGQAGWGTALLDYWGQGTLVTVSSGGGGSGGGSEVQLVESGGGVVQPGGSLRLSCAASETIFSIDSMAWYRQAPGKQRELVAAITGGGSPNYADSVKGRFTISSDVSKRTVYLQMNSLRPEDTALYYCNAEGQAGWGTALLDYWGQGTLVTVSSGGGGSGGGSEVQLVESGGGVVQPGGSLRLSCAASETIFSIDSMAWYRQAPGKQRELVAAITGGGSPNYADSVKGRFTISSDVSKRTVYLQMNSLRPEDTALYYCNAEGQAGWGTALLDYWGQGTLVTVSSGGGGSGGGGSGGGGSGGGGSGGGGSGGGGSGGGGSEVQLVESGGGVVQPGGSLRLSCAASGFTFRSFGMSWVRQAPGKGPEWVSSISGSGSDTLYADSVKGRFTISRDNSKNTLYLQMNSLRPEDTALYYCTIGGSLSRSSQGTLVTVSSA
0.0426	95.6	0.0128	140				A023100118 (VHH) DVQLVESGGGVVQPGGSLRLSCAASETIFSIDSMAWYRQAPGKQRELVAAITGGGSPNYADSVKGRFTISSDVSKRTVYLQMNSLRPEDTALYYCNAEGQAGWGTALLDYWGQGTLVTVSSGGGGSGGGSEVQLVESGGGVVQPGGSLRLSCAASETIFSIDSMAWYRQAPGKQRELVAAITGGGSPNYADSVKGRFTISSDVSKRTVYLQMNSLRPEDTALYYCNAEGQAGWGTALLDYWGQGTLVTVSSGGGGSGGGSEVQLVESGGGVVQPGGSLRLSCAASETIFSIDSMAWYRQAPGKQRELVAAITGGGSPNYADSVKGRFTISSDVSKRTVYLQMNSLRPEDTALYYCNAEGQAGWGTALLDYWGQGTLVTVSSGGGGSGGGSEVQLVESGGGVVQPGGSLRLSCAASETIFSIDSMAWYRQAPGKQRELVAAITGGGSPNYADSVKGRFTISSDVSKRTVYLQMNSLRPEDTALYYCNAEGQAGWGTALLDYWGQGTLVTVSSGGGGSGGGSEVQLVESGGGVVQPGGSLRLSCAASETIFSIDSMAWYRQAPGKQRELVAAITGGGSPNYADSVKGRFTISSDVSKRTVYLQMNSLRPEDTALYYCNAEGQAGWGTALLDYWGQGTLVTVSSGGGGSGGGGSGGGGSGGGGSGGGGSGGGGSGGGGSEVQLVESGGGVVQPGGSLRLSCAASGFTFRSFGMSWVRQAPGKGPEWVSSISGSGSDTLYADSVKGRFTISRDNSKNTLYLQMNSLRPEDTALYYCTIGGSLSRSSQGTLVTVSSA
				78	0.015	190000	A0231051E01 (VHH, Monovalent Nanobody expressed in E. coli with a triple Flag, HIS6 tag; also called A0231PMP051E01; PA0231PMP051E01.1; not shown: C-terminal triple FLAG and HIS6 tag) VHH: EVQLVESGGGLVQAGGSLRLSCAASGSIFSFIVMGWYRQAPGEQRALVATVTSGGDTFYVDSVKDRFTISRDNAKNTVYLQMNSLKPEDTAVYFCYFTKVSPYKETTWGQGTLVTVSS
0.0587	86.8	0.0157	150				A023100127 (VHH) DVQLVESGGGVVQPGGSLRLSCAASGSIFSIDSMGWYRQAPGKQRELVAAITSSTNYADSVKGRFTISRDNSKNTVYLQMNSLRPEDTALYYCNLEGQAGWGTALINYWGQGTLVTVSSGGGGSGGGSEVQLVESGGGVVQPGGSLRLSCAASGSIFSIDSMGWYRQAPGKQRELVAAITSSTNYADSVKGRFTISRDNSKNTVYLQMNSLRPEDTALYYCNLEGQAGWGTALINYWGQGTLVTVSSGGGGSGGGSEVQLVESGGGVVQPGGSLRLSCAASGSIFSIDSMGWYRQAPGKQRELVAAITSSTNYADSVKGRFTISRDNSKNTVYLQMNSLRPEDTALYYCNLEGQAGWGTALINYWGQGTLVTVSSGGGGSGGGSEVQLVESGGGVVQPGGSLRLSCAASGSIFSIDSMGWYRQAPGKQRELVAAITSSTNYADSVKGRFTISRDNSKNTVYLQMNSLRPEDTALYYCNLEGQAGWGTALINYWGQGTLVTVSSGGGGSGGGGSGGGGSGGGGSGGGGSGGGGSGGGGSEVQLVESGGGVVQPGGSLRLSCAASGFTFRSFGMSWVRQAPGKGPEWVSSISGSGSDTLYADSVKGRFTISRDNSKNTLYLQMNSLRPEDTALYYCTIGGSLSRSSQGTLVTVSSA
				120	0.09	750000	A0231052E08 (VHH, Monovalent Nanobody expressed in E. coli with a triple Flag, HIS6 tag; also called A0231PMP052E08; PA0231PMP052E08.1; not shown: C-terminal triple FLAG and HIS6 tag) VHH: EVQLVESGGGLVQAGGSLRLSCTGSRSIFSTYAMAWHRQAPGKQRELVGFIYWGGTTTYSDSVKGRFTISRDNAKNTMYLQMNSLKPEDAGVYYCNIYGSYALPWGQGTLVTVSS
0.06	97						A023100105 (VHH) DVQLVESGGGVVQPGGSLRLSCAASGSIFSIDSMGWYRQAPGKQRELVAAITSSTNYADSVKGRFTISRDNSKNTVYLQMNSLRPEDTALYYCNLEGQAGWGTALINYWGQGTLVTVSSGGGGSGGGSEVQLVESGGGVVQPGGSLRLSCAASGSIFSIDSMGWYRQAPGKQRELVAAITSSTNYADSVKGRFTISRDNSKNTVYLQMNSLRPEDTALYYCNLEGQAGWGTALINYWGQGTLVTVSSGGGGSGGGSEVQLVESGGGVVQPGGSLRLSCAASGSIFSIDSMGWYRQAPGKQRELVAAITSSTNYADSVKGRFTISRDNSKNTVYLQMNSLRPEDTALYYCNLEGQAGWGTALINYWGQGTLVTVSSGGGGSGGGGSGGGGSGGGGSGGGGSGGGGSGGGGSEVQLVESGGGVVQPGGSLRLSCAASGFTFRSFGMSWVRQAPGKGPEWVSSISGSGSDTLYADSVKGRFTISRDNSKNTLYLQMNSLRPEDTALYYCTIGGSLSRSSQGTLVTVSSA
0.0646	99.8	0.0147	147				A023100107 (VHH) DVQLVESGGGVVQPGGSLRLSCAASETIFSIDSMAWYRQAPGKQRELVAAITGGGSPNYADSVKGRFTISSDVSKRTVYLQMNSLRPEDTALYYCNAEGQAGWGTALLDYWGQGTLVTVSSGGGGSGGGSEVQLVESGGGVVQPGGSLRLSCAASETIFSIDSMAWYRQAPGKQRELVAAITGGGSPNYADSVKGRFTISSDVSKRTVYLQMNSLRPEDTALYYCNAEGQAGWGTALLDYWGQGTLVTVSSGGGGSGGGSEVQLVESGGGVVQPGGSLRLSCAASETIFSIDSMAWYRQAPGKQRELVAAITGGGSPNYADSVKGRFTISSDVSKRTVYLQMNSLRPEDTALYYCNAEGQAGWGTALLDYWGQGTLVTVSSGGGGSGGGSEVQLVESGGGVVQPGGSLRLSCAASETIFSIDSMAWYRQAPGKQRELVAAITGGGSPNYADSVKGRFTISSDVSKRTVYLQMNSLRPEDTALYYCNAEGQAGWGTALLDYWGQGTLVTVSSGGGGSGGGGSGGGGSGGGGSGGGGSGGGGSGGGGSEVQLVESGGGVVQPGGSLRLSCAASGFTFRSFGMSWVRQAPGKGPEWVSSISGSGSDTLYADSVKGRFTISRDNSKNTLYLQMNSLRPEDTALYYCTIGGSLSRSSQGTLVTVSSA
